Test results reported in US20200247894A1.
Like-named read-outs stand apart in the source and are kept apart here. Blank lines part the entries; values can stand above or below the substance they belong to.

Experiments:
[1] = target: mouse IL-2Rγ endogenously expressed on MC/9 cells (mouse) (UniProt P34902); experiment: flow cytometry, 10 ug/ml isotype control, MC/9 cells (endogenous mouse IL-2Rg)
[2] = target: human IL-2Rγ endogenously expressed on NK-92 and Jurkat cells (human) (UniProt P31785); experiment: flow cytometry, 10 ug/ml isotype control, NK-92 cells (endogenous human IL-2Rg)
[3] = target: human IL-2Rγ endogenously expressed on NK-92 and Jurkat cells (human) (UniProt P31785); experiment: as above; remark: listed apart in the source
[4] = target: human IL-2Rγ endogenously expressed on NK-92 and Jurkat cells (human) (UniProt P31785); experiment: flow cytometry, 10 ug/ml isotype control, Jurkat cells (endogenous human IL-2Rg)
[5] = target: human IL-2Rγ expressed on cells (human) (UniProt P31785); experiment: flow cytometry, isotype control at 10 µg/ml, MFI over unstained; upper end (NK-92 by Table 9-1)
[6] = target: human IL-2Rγ expressed on cells (human) (UniProt P31785); experiment: flow cytometry, isotype control at 10 µg/ml, MFI over unstained; lower end (Jurkat by Table 9-1)
[7] = target: human IL-2Rγ expressed on cells (human) (UniProt P31785); experiment: flow cytometry on NK-92 cells, isotype control at 10 µg/ml, MFI over unstained; the end 2 belongs to HEK293 (negative control cells) by Table 9-2
[8] = target: mouse IL-2Rγ endogenously expressed on MC/9 cells (mouse) (UniProt P34902); experiment: flow cytometry, secondary antibody alone (no primary), MC/9 cells (endogenous mouse IL-2Rg)
[9] = target: human IL-2Rγ endogenously expressed on NK-92 and Jurkat cells (human) (UniProt P31785); experiment: flow cytometry, secondary antibody alone (no primary), NK-92 cells (endogenous human IL-2Rg)
[10] = target: human IL-2Rγ endogenously expressed on NK-92 and Jurkat cells (human) (UniProt P31785); experiment: as above; remark: listed apart in the source
[11] = target: human IL-2Rγ endogenously expressed on NK-92 and Jurkat cells (human) (UniProt P31785); experiment: flow cytometry, secondary antibody alone (no primary), Jurkat cells (endogenous human IL-2Rg)
[12] = target: human IL2Rγ (endogenously expressed on cells) (human) (UniProt P31785); experiment: cell-based or functional assay
[13] = target: human IL2Rγ (endogenously expressed on cells) (human) (UniProt P31785); experiment: cell-based or functional assay; remark: listed apart in the source

Sequence of mouse IL-2Rγ endogenously expressed on MC/9 cells (mouse) (P34902 23-369): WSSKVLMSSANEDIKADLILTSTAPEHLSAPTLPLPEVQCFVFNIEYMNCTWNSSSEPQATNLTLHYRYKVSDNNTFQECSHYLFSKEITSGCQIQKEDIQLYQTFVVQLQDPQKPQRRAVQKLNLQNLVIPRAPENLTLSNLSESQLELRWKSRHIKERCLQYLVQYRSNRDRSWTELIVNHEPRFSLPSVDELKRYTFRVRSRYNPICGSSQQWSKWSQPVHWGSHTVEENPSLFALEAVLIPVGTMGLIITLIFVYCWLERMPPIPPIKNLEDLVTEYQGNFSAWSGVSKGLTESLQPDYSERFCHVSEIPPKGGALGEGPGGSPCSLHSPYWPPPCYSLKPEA
Sequence of human IL-2Rγ expressed on cells (human) (P31785 23-369): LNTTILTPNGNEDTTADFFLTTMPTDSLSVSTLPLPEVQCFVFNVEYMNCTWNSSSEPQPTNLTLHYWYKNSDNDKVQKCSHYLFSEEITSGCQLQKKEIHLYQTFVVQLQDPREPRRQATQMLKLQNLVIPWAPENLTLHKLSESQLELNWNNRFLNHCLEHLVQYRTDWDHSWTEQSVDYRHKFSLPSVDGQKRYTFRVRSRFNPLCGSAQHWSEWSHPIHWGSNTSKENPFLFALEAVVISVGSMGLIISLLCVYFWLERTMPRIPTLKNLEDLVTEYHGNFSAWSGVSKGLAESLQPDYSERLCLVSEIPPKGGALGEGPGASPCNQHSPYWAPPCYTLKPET
Sequence of human IL2Rγ (endogenously expressed on cells) (human) (P31785 23-369): as above
Sequence of human IL-2Rγ endogenously expressed on NK-92 and Jurkat cells (human) (P31785 23-369): as above

Substance: REGN1945 (antibody)
Binding Ratio (Sample over unstained MFIs) [1]: 1
Raw MFI [1]: 196 MFI
Binding Ratio (Sample over unstained MFIs) [2]: 13
Raw MFI [2]: 1890 MFI
Binding Ratio (Sample over unstained MFIs) [3]: 1
Raw MFI [3]: 223 MFI
Binding Ratio (Sample over unstained MFIs) [4]: 1
Raw MFI [4]: 92 MFI
binding ratio [5]: 13
binding ratio [6]: 1
binding ratio [7]: 1

Substance: anti-human antibody conjugated to allophycocyanin (APC) (Jackson ImmunoResearch, #109-136-170)
Binding Ratio (Sample over unstained MFIs) [8]: 1
Raw MFI [8]: 173 MFI
Binding Ratio (Sample over unstained MFIs) [9]: 1
Raw MFI [9]: 210 MFI
Raw MFI [10]: 234 MFI
Binding Ratio (Sample over unstained MFIs) [11]: 1
Raw MFI [11]: 80 MFI

Substance: human IL-2 (from UniProt P60568 21-153) (ligand)
EC50; IL-2 dose response; NK92/hIL7R/STAT3-luc [12]: 0.033 nM
EC50; IL-2 dose response; NK92/hIL7R/STAT3-luc [13]: 0.045 nM

Substance: human IL-21 (from UniProt Q9HBE4 32-162) (ligand)
EC50; IL-21 dose response; NK92/hIL7R/STAT3-luc [12]: 0.0031 nM
EC50; IL-21 dose response; NK92/hIL7R/STAT3-luc [13]: 0.006 nM

The next lines start with the values.

EC50; IL-9 dose response; NK92/hIL7R/STAT3-luc [12]: 0.02 nM
EC50; IL-9 dose response; NK92/hIL7R/STAT3-luc [13]: 0.033 nM
Substance: human IL-9 (from UniProt P15248 19-144) (ligand)

EC50; IL-15 dose response; NK92/hIL7R/STAT3-luc [12]: 0.15 nM
EC50; IL-15 dose response; NK92/hIL7R/STAT3-luc [13]: 0.23 nM
Substance: human IL-15 (from UniProt P40933 49-162) (ligand)
